Laboratory results from the Human Domainome abundance scans (Beltran et al. 2025).
± gives the uncertainty stated by the source.

B1: GAS2-like protein 1, residues 209 to 276; numbered along this chain, Q99501 (parent)
chain: DELVREILGRCTCPDQFPMIKVSEGKYRVGDSSLLIFVRVLRSHVMVRVGGGWDTLEHYLDKHDPCRC

Variants of: B1
Assay: abundance fitness (aPCA) (normalised: wild type 0, dead -1); higher = more abundant; growth selection in yeast, the domain comes from the species named
Conditions: Homo sapiens

Row | Variant | abundance fitness
1 | L3Q | -0.025 ± 0.053
2 | L3S | -0.459 ± 0.069
3 | L3E | -0.627 ± 0.12
4 | L3C | -0.117 ± 0.076
5 | L3H | -0.34 ± 0.081
6 | C13V | -0.306 ± 0.074
7 | C13T | -0.817 ± 0.15
8 | C13S | -0.728 ± 0.071
9 | C13L | -0.719 ± 0.072
10 | C13P | -0.972 ± 0.24
11 | C13R | -0.851 ± 0.087
12 | S32K | -0.175 ± 0.053
13 | S32Q | -0.044 ± 0.061
14 | S32T | -0.026 ± 0.063
15 | S32G | -0.085 ± 0.047
16 | S32M | -0.252 ± 0.06
17 | S32A | -0.064 ± 0.046
18 | D64C | -0.319 ± 0.093
19 | D64M | -0.888 ± 0.13
20 | D64Q | -0.93 ± 0.14
21 | D64R | -0.659 ± 0.067
22 | D64H | -0.511 ± 0.14
23 | K62R | -0.065 ± 0.042
24 | K62E | 0.054 ± 0.048

Row | Variant | abundance fitness
25 | K62T | -0.048 ± 0.049
26 | K62P | -0.832 ± 0.12
27 | K62A | -0.069 ± 0.049
28 | K62N | -0.091 ± 0.14
29 | K62Y | -0.242 ± 0.073
30 | I20K | -0.037 ± 0.2
31 | I20W | 0.008 ± 0.06
32 | I20V | -0.021 ± 0.052
33 | I20F | -0.096 ± 0.069
34 | I20E | -0.016 ± 0.087
35 | I20H | 0.167 ± 0.12
36 | I20G | -0.498 ± 0.073
37 | I20P | -0.917 ± 0.25
38 | L56V | -0.967 ± 0.11
39 | L56N | -0.806 ± 0.26
40 | L56K | -0.868 ± 0.13
41 | L56A | -0.944 ± 0.12
42 | L56F | -0.3 ± 0.088
43 | G9P | -0.818 ± 0.11
44 | G9T | -0.346 ± 0.056
45 | G9D | 0.107 ± 0.05
46 | G9F | -0.399 ± 0.097
47 | G9V | -0.587 ± 0.044
48 | D31Y | -0.181 ± 0.065

Row | Variant | abundance fitness
49 | D31A | -0.06 ± 0.046
50 | D31K | -0.162 ± 0.062
51 | D31R | -0.087 ± 0.06
52 | D31E | 0.007 ± 0.061
53 | D31T | 0.059 ± 0.05
54 | D31H | 0.039 ± 0.1
55 | H58A | 0.043 ± 0.042
56 | H58Q | -0.34 ± 0.11
57 | H58V | -0.688 ± 0.063
58 | H58F | -0.877 ± 0.22
59 | H58Y | -0.676 ± 0.081
60 | H58M | -0.514 ± 0.066
61 | H58E | -0.102 ± 0.072
62 | K21N | -0.828 ± 0.24
63 | K21Y | -0.525 ± 0.12
64 | K21G | -0.689 ± 0.077
65 | K21E | -0.396 ± 0.1
66 | K21P | -0.646 ± 0.1
67 | K21L | -0.541 ± 0.062
68 | T55C | -0.785 ± 0.21
69 | T55V | -0.773 ± 0.11
70 | T55Q | -0.431 ± 0.065
71 | T55F | -0.263 ± 0.088
72 | T55P | -0.282 ± 0.092

Row | Variant | abundance fitness
73 | V40W | -0.661 ± 0.31
74 | V40Q | -0.28 ± 0.19
75 | V40M | -0.259 ± 0.1
76 | V40Y | -0.26 ± 0.31
77 | V40T | -0.137 ± 0.095
78 | G25W | -0.58 ± 0.048
79 | G25Y | -0.388 ± 0.11
80 | G25K | -0.739 ± 0.25
81 | G25F | -0.366 ± 0.098
82 | L60M | -0.572 ± 0.092
83 | L60N | -0.885 ± 0.18
84 | L60Q | -0.708 ± 0.19
85 | L60G | -0.915 ± 0.12
86 | R10P | -0.863 ± 0.16
87 | R10I | -0.766 ± 0.14
88 | R10K | -0.135 ± 0.063
89 | R10N | -0.234 ± 0.062
90 | R48Y | -0.166 ± 0.057
91 | R48H | -0.102 ± 0.17
92 | R48L | -0.495 ± 0.048
93 | R48Q | -0.133 ± 0.076
94 | R48G | -0.236 ± 0.041
95 | R48E | -0.191 ± 0.12
96 | Y59I | -0.962 ± 0.21

Row | Variant | abundance fitness
97 | Y59N | -1.02 ± 0.41
98 | Y59V | -0.568 ± 0.08
99 | Y59E | -0.946 ± 0.14
100 | Y59D | -1.03 ± 0.43
101 | Y59H | -1.03 ± 0.29
102 | V45S | -0.937 ± 0.21
103 | V45Q | -0.919 ± 0.14
104 | V38L | -0.275 ± 0.1
105 | V38G | -0.566 ± 0.14
106 | V38T | -0.402 ± 0.49
107 | R67C | -0.92 ± 0.15
108 | R67Q | -0.882 ± 0.15
109 | R67H | -0.931 ± 0.48
110 | R67P | -0.902 ± 0.2
111 | E6K | -0.151 ± 0.057
112 | E6T | -0.141 ± 0.055
113 | E6I | -0.521 ± 0.15
114 | E6R | -0.165 ± 0.045
115 | E6H | -0.452 ± 0.1
116 | E6S | -0.205 ± 0.044
117 | E6F | -0.708 ± 0.15
118 | M19R | -0.516 ± 0.081
119 | M19N | -0.74 ± 0.3
120 | V47F | -0.921 ± 0.2

Row | Variant | abundance fitness
121 | V47W | -0.761 ± 0.13
122 | V47T | -0.783 ± 0.087
123 | V47R | -0.979 ± 0.1
124 | V47L | -0.595 ± 0.056
125 | G51L | -0.219 ± 0.043
126 | G51C | -0.157 ± 0.077
127 | G51A | 0.024 ± 0.072
128 | G51V | -0.363 ± 0.052
129 | G51R | -0.159 ± 0.047
130 | G51K | 0.056 ± 0.065
131 | G51W | -0.512 ± 0.074
132 | P18M | -0.501 ± 0.085
133 | P18Y | -0.669 ± 0.14
134 | T12S | -0.181 ± 0.043
135 | T12W | -0.831 ± 0.2
136 | T12E | -0.381 ± 0.063
137 | C11F | -0.848 ± 0.2
138 | C11Y | -0.892 ± 0.12
139 | V29H | -0.188 ± 0.16
140 | V29T | -0.531 ± 0.07
141 | V29W | -0.551 ± 0.089
142 | V29Q | -0.501 ± 0.081
143 | I7N | -0.74 ± 0.13
144 | I7D | -0.704 ± 0.36

Row | Variant | abundance fitness
145 | I7Q | 0.069 ± 0.046
146 | I7L | -0.012 ± 0.034
147 | F37V | 0.054 ± 0.04
148 | F37G | 0.064 ± 0.038
149 | F37P | 0.256 ± 0.048
150 | F37Y | -0.07 ± 0.12
151 | F37I | -0.007 ± 0.068
152 | F37D | 0.37 ± 0.089
153 | F37M | 0.066 ± 0.078
154 | D15Y | -0.151 ± 0.052
155 | D15F | -0.259 ± 0.06
156 | D15W | -0.32 ± 0.069
157 | D15G | -0.379 ± 0.1
158 | D15A | 0.04 ± 0.044
159 | D15M | 0.046 ± 0.05
160 | D15I | 0.014 ± 0.058
161 | C68T | 0.225 ± 0.11
162 | C68E | -0.024 ± 0.16
163 | C68I | -0.016 ± 0.21
164 | C68A | 0.177 ± 0.066
165 | C68N | -0.078 ± 0.18
166 | E57C | -0.993 ± 0.18
167 | E57R | -0.899 ± 0.14
